These results are taken from US20250339531A1, “DUX4 POLYPEPTIDES AND NUCLEIC ACIDS FOR TREATING INFLAMMATORY AND AUTOIMMUNE CONDITIONS” (Fred Hutchinson Cancer Center, priority 2021, published 2025).

The experiment deals with proteins that co-immunoprecipitated with DUX4-CTD constructs expressed in MB135 myoblasts. Nature of the experiment: LC-MS of proteins co-immunoprecipitated with DUX4-CTD (Table 1) and western validation. It counts as binding, human. The note with it: for 4. longCTD + Dox + IFNG: LC-MS counts of the listed protein co-immunoprecipitated with DUX4-CTD bait longCTD, experiment 4, Dox + IFNG; for 3. + Dox longCTD / 3. + IFNg + Dox longCTD / 3. + IFNG longCTD: bait longCTD; for 3. + Dox longCTD: experiment 3, Dox only; for 3. + IFNg + Dox longCTD: experiment 3, IFNg + Dox; for SUM of PSMS: sum over all samples; for 3. + IFNG longCTD: experiment 3, IFNG only, no doxycycline (bait at background level). Further details: key to 4. mL1dL2 + Dox + IFNG / 4. + IFNG mix / 4. longCTD + Dox + IFNG / 3. + IFNg + Dox longCTD / 3. + Dox longCTD / 3. + IFNG longCTD: peptide-spectrum matches (PSMs) per protein. The essentials:
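FLAG-tagged DUX4-CTD expressed in doxycycline-induced MB135 myoblasts, some also IFNG-treated; nuclear lysates in pH 7.4 NP-40 IP buffer were pre-cleared, then anti-FLAG immunoprecipitated 3 h at 4 °C. For LC-MS, FLAG-peptide elution, in-gel trypsin digest, Orbitrap analysis; proteins with ≥2 PSMs in both experiments categorised and ranked by total PSMs.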

B1: Q9BUF5 (protein, UniProt Q9BUF5 1-446, looked up)
chain: MREIVHIQAGQCGNQIGTKFWEVISDEHGIDPAGGYVGDSALQLERINVYYNESSSQKYVPRAALVDLEPGTMDSVRSGPFGQLFRPDNFIFGQTGAGNNWAKGHYTEGAELVDAVLDVVRKECEHCDCLQGFQLTHSLGGGTGSGMGTLLISKIREEFPDRIMNTFSVMPSPKVSDTVVEPYNATLSVHQLVENTDETYCIDNEALYDICFRTLKLTTPTYGDLNHLVSATMSGVTTSLRFPGQLNADLRKLAVNMVPFPRLHFFMPGFAPLTSRGSQQYRALTVPELTQQMFDARNMMAACDPRHGRYLTVATVFRGPMSMKEVDEQMLAIQSKNSSYFVEWIPNNVKVAVCDIPPRGLKMASTFIGNSTAIQELFKRISEQFSAMFRRKAFLHWFTGEGMDEMEFTEAESNMNDLVSEYQQYQDATANDGEEAFEDEEEEIDG
modifications: full-length
In the case of B1, the “4. longCTD + Dox + IFNG” value came out at 46, the “3. + Dox longCTD” value was 20, the “3. + IFNg + Dox longCTD” value is recorded as 39 and the “SUM of PSMS” value stood at 128.

B2: Q13885 (protein, UniProt Q13885 1-445, looked up)
chain: MREIVHIQAGQCGNQIGAKFWEVISDEHGIDPTGSYHGDSDLQLERINVYYNEAAGNKYVPRAILVDLEPGTMDSVRSGPFGQIFRPDNFVFGQSGAGNNWAKGHYTEGAELVDSVLDVVRKESESCDCLQGFQLTHSLGGGTGSGMGTLLISKIREEYPDRIMNTFSVMPSPKVSDTVVEPYNATLSVHQLVENTDETYSIDNEALYDICFRTLKLTTPTYGDLNHLVSATMSGVTTCLRFPGQLNADLRKLAVNMVPFPRLHFFMPGFAPLTSRGSQQYRALTVPELTQQMFDSKNMMAACDPRHGRYLTVAAIFRGRMSMKEVDEQMLNVQNKNSSYFVEWIPNNVKTAVCDIPPRGLKMSATFIGNSTAIQELFKRISEQFTAMFRRKAFLHWYTGEGMDEMEFTEAESNMNDLVSEYQQYQDATADEQGEFEEEEGEDEA
modifications: full-length
On to B2, for which the “4. longCTD + Dox + IFNG” value is 99, the “3. + Dox longCTD” value was determined as 35, the “3. + IFNG longCTD” value came out at 13 and the “3. + IFNg + Dox longCTD” value stood at 61. The “SUM of PSMS” value came out at 208.

B3: Q13409 (protein, UniProt Q13409 1-638, looked up)
chain: MSDKSELKAELERKKQRLAQIREEKKRKEEERKKKETDQKKEAVAPVQEESDLEKKRREAEALLQSMGLTPESPIVFSEYWVPPPMSPSSKSVSTPSEAGSQDSGDGAVGSRTLHWDTDPSVLQLHSDSDLGRGPIKLGMAKITQVDFPPREIVTYTKETQTPVMAQPKEDEEEDDDVVAPKPPIEPEEEKTLKKDEENDSKAPPHELTEEEKQQILHSEEFLSFFDHSTRIVERALSEQINIFFDYSGRDLEDKEGEIQAGAKLSLNRQFFDERWSKHRVVSCLDWSSQYPELLVASYNNNEDAPHEPDGVALVWNMKYKKTTPEYVFHCQSAVMSATFAKFHPNLVVGGTYSGQIVLWDNRSNKRTPVQRTPLSAAAHTHPVYCVNVVGTQNAHNLISISTDGKICSWSLDMLSHPQDSMELVHKQSKAVAVTSMSFPVGDVNNFVVGSEEGSVYTACRHGSKAGISEMFEGHQGPITGIHCHAAVGAVDFSHLFVTSSFDWTVKLWTTKNNKPLYSFEDNADYVYDVMWSPTHPALFACVDGMGRLDLWNLNNDTEVPTASISVEGNPALNRVRWTHSGREIAVGDSEGQIVIYDVGEQIAVPRNDEWARFGRTLAEINANRADAEEEAATRIPA
modifications: full-length
As for B3, the “4. longCTD + Dox + IFNG” value is 4, the “3. + IFNg + Dox longCTD” value amounted to 1 and the “SUM of PSMS” value amounted to 5.

B4: P07437 (protein, UniProt P07437 1-444, looked up)
chain: MREIVHIQAGQCGNQIGAKFWEVISDEHGIDPTGTYHGDSDLQLDRISVYYNEATGGKYVPRAILVDLEPGTMDSVRSGPFGQIFRPDNFVFGQSGAGNNWAKGHYTEGAELVDSVLDVVRKEAESCDCLQGFQLTHSLGGGTGSGMGTLLISKIREEYPDRIMNTFSVVPSPKVSDTVVEPYNATLSVHQLVENTDETYCIDNEALYDICFRTLKLTTPTYGDLNHLVSATMSGVTTCLRFPGQLNADLRKLAVNMVPFPRLHFFMPGFAPLTSRGSQQYRALTVPELTQQVFDAKNMMAACDPRHGRYLTVAAVFRGRMSMKEVDEQMLNVQNKNSSYFVEWIPNNVKTAVCDIPPRGLKMAVTFIGNSTAIQELFKRISEQFTAMFRRKAFLHWYTGEGMDEMEFTEAESNMNDLVSEYQQYQDATAEEEEDFGEEAEEEA
modifications: full-length
As to B4, the “4. longCTD + Dox + IFNG” value is listed as 110, the “3. + Dox longCTD” value stood at 41, the “3. + IFNG longCTD” value came out at 14 and the “3. + IFNg + Dox longCTD” value was 75. In addition, the “SUM of PSMS” value was found to be 315.

B5: SF3B3 (protein)
chain: MFLYNLTLQRATGISFAIHGNFSGTKQQEIVVSRGKILELLRPDPNTGKVHTLLTVEVFGVIRSLMAFRLTGGTKDYIVVGSDSGRIVILEYQPSKNMFEKIHQETFGKSGCRRIVPGQFLAVDPKGRAVMISAIEKQKLVYILNRDAAARLTISSPLEAHKANTLVYHVVGVDVGFENPMFACLEMDYEEADNDPTGEAAANTQQTLTFYELDLGLNHVVRKYSEPLEEHGNFLITVPGGSDGPSGVLICSENYITYKNFGDQPDIRCPIPRRRNDLDDPERGMIFVCSATHKTKSMFFFLAQTEQGDIFKITLETDEDMVTEIRLKYFDTVPVAAAMCVLKTGFLFVASEFGNHYLYQIAHLGDDDEEPEFSSAMPLEEGDTFFFQPRPLKNLVLVDELDSLSPILFCQIADLANEDTPQLYVACGRGPRSSLRVLRHGLEVSEMAVSELPGNPNAVWTVRRHIEDEFDAYIIVSFVNATLVLSIGETVEEVTDSGFLGTTPTLSCSLLGDDALVQVYPDGIRHIRADKRVNEWKTPGKKTIVKCAVNQRQVVIALTGGELVYFEMDPSGQLNEYTERKEMSADVVCMSLANVPPGEQRSRFLAVGLVDNTVRIISLDPSDCLQPLSMQALPAQPESLCIVEMGGTEKQDELGERGSIGFLYLNIGLQNGVLLRTVLDPVTGDLSDTRTRYLGSRPVKLFRVRMQGQEAVLAMSSRSWLSYSYQSRFHLTPLSYETLEFASGFASEQCPEGIVAISTNTLRILALEKLGAVFNQVAFPLQYTPRKFVIHPESNNLIIIETDHNAYTEATKAQRKQQMAEEMVEAAGEDERELAAEMAAAFLNENLPESIFGAPKAGNGQWASVIRVMNPIQGNTLDLVQLEQNEAAFSVAVCRFSNTGEDWYVLVGVAKDLILNPRSVAGGFVYTYKLVNNGEKLEFLHKTPVEEVPAAIAPFQGRVLIGVGKLLRVYDLGKKKLLRKCENKHIANYISGIQTIGHRVIVSDVQESFIWVRYKRNENQLIIFADDTYPRWVTTASLLDYDTVAGADKFGNICVVRLPPNTNDEVDEDPTGNKALWDRGLLNGASQKAEVIMNYHVGETVLSLQKTTLIPGGSESLVYTTLSGGIGILVPFTSHEDHDFFQHVEMHLRSEHPPLCGRDHLSFRSYYFPVKNVIDGDLCEQFNSMEPNKQKNVSEELDRTPPEVSKKLEDIRTRYAF
Consider B5, for which the “4. mL1dL2 + Dox + IFNG” value (LC-MS value per protein co-immunoprecipitated with DUX4-CTD construct mL1dL2 in MB135 myoblasts, + Dox + IFNG, kind of count not given) worked out at 10.

B6: Q14247 (protein, UniProt Q14247 1-550, looked up)
chain: MWKASAGHAVSIAQDDAGADDWETDPDFVNDVSEKEQRWGAKTVQGSGHQEHINIHKLRENVFQEHQTLKEKELETGPKASHGYGGKFGVEQDRMDKSAVGHEYQSKLSKHCSQVDSVRGFGGKFGVQMDRVDQSAVGFEYQGKTEKHASQKDYSSGFGGKYGVQADRVDKSAVGFDYQGKTEKHESQRDYSKGFGGKYGIDKDKVDKSAVGFEYQGKTEKHESQKDYVKGFGGKFGVQTDRQDKCALGWDHQEKLQLHESQKDYKTGFGGKFGVQSERQDSAAVGFDYKEKLAKHESQQDYSKGFGGKYGVQKDRMDKNASTFEDVTQVSSAYQKTVPVEAVTSKTSNIRANFENLAKEKEQEDRRKAEAERAQRMAKERQEQEEARRKLEEQARAKTQTPPVSPAPQPTEERLPSSPVYEDAASFKAELSYRGPVSGTEPEPVYSMEAADYREASSQQGLAYATEAVYESAEAPGHYPAEDSTYDEYENDLGITAVALYDYQAAGDDEISFDPDDIITNIEMIDDGWWRGVCKGRYGLFPANYVELRQ
modifications: full-length
Take B6: the “4. longCTD + Dox + IFNG” value was 5, the “3. + IFNg + Dox longCTD” value stood at 1 and the “SUM of PSMS” value is reported as 6.
